{
  "source": "patent US4348387A",
  "about": "“Method and system for the controlled release of biologically active substances to a body fluid” (The Rockefeller University, priority 1979, dated 1982)",
  "key": {"blood glucose": {"test_system": "blood glucose", "experiment": "blood-glucose depression assay modified from the U.S. Pharmacopeia", "conditions": "individual animals A-F; overnight fast; 0.1mg protein/100gm body weight subcutaneous; 60 minutes after injection; each animal its own control", "quoted_text": "The conjugate prepared in I was tested using the blood-glucose depression assay modified from the U.S. Pharmoacopeia (Vol. XVIII, 883-884 (1967)).\n*After an overnight fast, each animal received 0.1mg protein/100gm body\nweight by subcutaneous injection. Each of the animals served as its own\ncontrol, receiving the maltoseinsulin derivative on day 1, and control\ninsulin on day 2. Blood glucose depression was determined 60 minutes afte\ninjection using a Beckman Glucose Analyzer 2."}, "Concanavalin A": {"biological_target": "Concanavalin A (Canavalia ensiformis, UniProt P02866)", "experiment": "binding to and glucose elution from columns of immobilized Concanavalin A", "set-up": "species or system Jack Bean", "method": "At the point indicated by the arrow, 0.2 M glucose in the column buffer was begun. Fractions (2.0 ml) were collected at a flow rate of 10-15 ml/h.\nDisplacement of hormone was accomplished using 1.0 ml pulses of column buffer containing varying amounts of glucose. Glucose content is indicated over the appropriate arrows. Fractions (1.7 ml) were collected at a flow rate of 10-15 ml/h."}},
  "note": "Where “and” joins values, the source holds several entries; their conditions need not be identical. Identical values can stand only once.",
  "data": [
    {"substance": "insulin [Control insulin]", "values": [
      {"measurement": "BLOOD GLUCOSE DEPRESSION", "setting": "blood glucose", "value": "75 mg % and 70 mg % and 79 mg % and 64 mg % and 73 mg %"},
      {"measurement": "binding to immobilized Concanavalin A", "setting": "Concanavalin A; 20 mg applied to column, buffer wash, 25 mM sodium phosphate pH 7.4", "value": "did not bind to Concanavalin A"},
      {"measurement": "elution from Concanavalin A by glucose", "setting": "Concanavalin A; 0.2 M glucose in column buffer, 1,000:1 molar excess of glucose", "value": "none was eluted by the addition of glucose"}
    ]}
  ]
}
